Results from PMC3774411, “Characterization of the Human Sigma-1 Receptor Chaperone Domain Structure and Binding Immunoglobulin Protein (BiP) Interactions*” (The Journal of Biological Chemistry, 2013).

Assays:
[1] = molecular target: T1, isolated nucleotide binding domain of human BiP (residues 26-410) (human, UniProt P11021 26-410); assay: NMR titration; 15N-labelled S1R(cd) (~250 uM) in DPC micelles titrated with unlabelled BiP constructs; 1H,15N SOFAST-HMQC, cross-peak intensities and chemical shifts; 100 mM NaCl, 30 mM DPC, 5 mM 2-mercaptoethanol, 20 mM HEPES pH 6.5, 37 C; full-length BiP without and with 2.5 mM calcium chloride, NBD without calcium, SBD with 2.5 mM calcium; details: both partners purified
T1 construct: also called NBD; BiP NBD; source: E. coli BL21(DE3), purified (ammonium sulfate precipitation, nickel chromatography, Q-Sepharose, Superdex200)
T1 sequence (P11021 26-410): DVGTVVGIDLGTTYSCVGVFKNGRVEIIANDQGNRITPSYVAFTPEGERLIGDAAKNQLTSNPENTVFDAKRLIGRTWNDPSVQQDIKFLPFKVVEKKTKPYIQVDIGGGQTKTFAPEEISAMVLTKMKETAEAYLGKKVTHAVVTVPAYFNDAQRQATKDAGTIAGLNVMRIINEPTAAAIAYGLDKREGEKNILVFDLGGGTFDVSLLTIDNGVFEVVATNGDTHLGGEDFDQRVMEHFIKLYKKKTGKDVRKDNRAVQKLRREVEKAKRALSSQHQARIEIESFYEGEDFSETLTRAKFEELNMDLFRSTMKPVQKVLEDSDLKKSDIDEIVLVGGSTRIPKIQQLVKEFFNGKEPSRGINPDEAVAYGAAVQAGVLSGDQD

[2] = molecular target: T2, human binding immunoglobulin protein (BiP), residues 26-654 ("full length") (human, UniProt P11021 26-654); assay: as above; details: both partners purified
T2 construct: Constructs from Herwig Schueler, Karolinska Institutet; also called full-length BiP; source: E. coli BL21(DE3), purified (ammonium sulfate precipitation, nickel chromatography, Q-Sepharose, Superdex200)
T2 sequence (P11021 26-654): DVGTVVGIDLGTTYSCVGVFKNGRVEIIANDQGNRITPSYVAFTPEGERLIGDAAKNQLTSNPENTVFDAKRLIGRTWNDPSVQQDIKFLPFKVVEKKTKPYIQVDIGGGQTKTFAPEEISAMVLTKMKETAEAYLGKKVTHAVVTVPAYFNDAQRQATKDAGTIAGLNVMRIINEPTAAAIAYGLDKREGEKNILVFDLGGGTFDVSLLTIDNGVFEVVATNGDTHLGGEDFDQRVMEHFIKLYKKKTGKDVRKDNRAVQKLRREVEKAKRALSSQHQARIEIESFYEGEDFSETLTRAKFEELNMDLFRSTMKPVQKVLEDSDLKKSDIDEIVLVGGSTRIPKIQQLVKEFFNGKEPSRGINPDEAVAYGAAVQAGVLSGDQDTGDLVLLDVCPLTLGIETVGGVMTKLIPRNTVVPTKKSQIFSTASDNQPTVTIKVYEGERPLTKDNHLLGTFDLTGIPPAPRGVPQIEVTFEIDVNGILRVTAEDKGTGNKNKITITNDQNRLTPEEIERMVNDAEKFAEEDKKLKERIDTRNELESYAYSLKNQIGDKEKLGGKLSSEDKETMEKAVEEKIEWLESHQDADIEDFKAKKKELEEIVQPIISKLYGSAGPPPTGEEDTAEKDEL

B1: human sigma-1 receptor chaperone domain (residues 112-223) (domain or fragment, UniProt Q99720 112-223, looked up)
chain: GSRGHSGRYWAEISDTIISGTFHQWREGTTKSEVFYPGETVVHGPGEATAVEWGPNTWMVEYGRGVIPSTLAFALADTVFSTQDFLTLFYTLRSYARGLRLELTTYLFGQDP
notes: sigma-1 receptor (S1R), human, residues 112-223 (chaperone domain; 223 is the C-terminal residue); 15N-labelled for the titrations; No cleavage of the tag is described; also called S1R(cd); S1R chaperone domain
B1: binds [1]; binds [2].
